Measurements as given in patent publication US10808017B2, “Ubiquitin variants and uses therof as 53BP1 inhibitors” (The Governing Council of the University of Toronto, priority 2016, dated 2020).
Several values for one entry are separate records, joined by “and”; a condition that tells them apart may be missing. Equal entries are not always repeated.

Columns and labels:
Format in all cases: binding
FMR1 = target: T1, FMR1 (Homo sapiens, UniProt Q06787); assay: Flag IP-MS of i53/i53-DM baits: prey FMR1; details: 293T Flp-In/T-Rex extracts, LC-MS/MS, one column per replicate IP
T1 construct: endogenous in cells; host or cells: HEK293 Flp-In/T-REx cells
Method: (§1) Following immunoprecipitation of Flag-tagged i53 and i-53-DM from HEK293 Flp-In/T-REx cells, peptides were identified using LC-MS/MS. Proteins were digested in solution with trypsin (Sigma, T7575-1KT) and dried to completeness. For LC-MS/MS analysis, peptides were reconstituted in 5% formic acid and loaded onto a 12-15 cm fused silica column with pulled tip packed in-house with 3.5 μm Zorbax C18 (Agilent Technologies, Calif., USA).
(§2) i53 and i53-DM precipitates were analyzed using an LTQ (Thermo Scientific) coupled to an Agilent 1100 Series HPLC (Agilent Technologies). Peptides were eluted from the column using a 90 min period cycle with a linear gradient from 0% to 40% ACN in 0.1% formic acid. Tandem MS spectra were acquired in a data-dependent mode for the top 5 (LTQ) most abundant ions using collision-induced dissociation. Acquired spectra were searched against the human Refseq_V53 database using Mascot (Matrix Science).
(§3) 293T Flp-In/T-Rex cell lines were generated that expressed Flag-tagged i53 or i53-DM under the control of a tetracycline-inducible promoter as previously described. Nine IP-MS experiments were analyzed (3 biological replicate IPs each for control i53- and i53-DM expressing cell lines). The interacting proteins were identified by MASCOT to identify high-confidence interactors for i53. […]

RPS29 = target: T2, RPS29 (Homo sapiens, UniProt P62273); assay: Flag IP-MS of i53/i53-DM baits: prey RPS29; details: 293T Flp-In/T-Rex extracts, LC-MS/MS, one column per replicate IP
T2 construct: Following immunoprecipitation of Flag-tagged i53 and i-53-DM from HEK293 Flp-In/T-REx cells, peptides were identified using LC-MS/MS; endogenous in cells; host or cells: HEK293 Flp-In/T-REx cells
Method: as §1, §2, §3

MYCBP = target: T3, MYCBP (Homo sapiens, UniProt Q99417); assay: Flag IP-MS of i53/i53-DM baits: prey MYCBP; details: 293T Flp-In/T-Rex extracts, LC-MS/MS, one column per replicate IP, listed as Flag-i53-DM
T3 construct: endogenous in cells; host or cells: HEK293 Flp-In/T-REx
T3 sequence (Q99417 1-103): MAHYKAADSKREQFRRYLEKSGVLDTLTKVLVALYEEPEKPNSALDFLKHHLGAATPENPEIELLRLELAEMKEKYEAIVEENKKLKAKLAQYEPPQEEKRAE
Method: as §1, §2, §3

53BP1 = target: T4, 53BP1 (Homo sapiens, UniProt Q12888); assay: Flag co-immunoprecipitation from 293T cells; details: Flag IP from transfected 293T cell extracts, immunoblot
T4 construct: endogenous in cells; host or cells: 293T
T4 sequence (Q12888 whole entry): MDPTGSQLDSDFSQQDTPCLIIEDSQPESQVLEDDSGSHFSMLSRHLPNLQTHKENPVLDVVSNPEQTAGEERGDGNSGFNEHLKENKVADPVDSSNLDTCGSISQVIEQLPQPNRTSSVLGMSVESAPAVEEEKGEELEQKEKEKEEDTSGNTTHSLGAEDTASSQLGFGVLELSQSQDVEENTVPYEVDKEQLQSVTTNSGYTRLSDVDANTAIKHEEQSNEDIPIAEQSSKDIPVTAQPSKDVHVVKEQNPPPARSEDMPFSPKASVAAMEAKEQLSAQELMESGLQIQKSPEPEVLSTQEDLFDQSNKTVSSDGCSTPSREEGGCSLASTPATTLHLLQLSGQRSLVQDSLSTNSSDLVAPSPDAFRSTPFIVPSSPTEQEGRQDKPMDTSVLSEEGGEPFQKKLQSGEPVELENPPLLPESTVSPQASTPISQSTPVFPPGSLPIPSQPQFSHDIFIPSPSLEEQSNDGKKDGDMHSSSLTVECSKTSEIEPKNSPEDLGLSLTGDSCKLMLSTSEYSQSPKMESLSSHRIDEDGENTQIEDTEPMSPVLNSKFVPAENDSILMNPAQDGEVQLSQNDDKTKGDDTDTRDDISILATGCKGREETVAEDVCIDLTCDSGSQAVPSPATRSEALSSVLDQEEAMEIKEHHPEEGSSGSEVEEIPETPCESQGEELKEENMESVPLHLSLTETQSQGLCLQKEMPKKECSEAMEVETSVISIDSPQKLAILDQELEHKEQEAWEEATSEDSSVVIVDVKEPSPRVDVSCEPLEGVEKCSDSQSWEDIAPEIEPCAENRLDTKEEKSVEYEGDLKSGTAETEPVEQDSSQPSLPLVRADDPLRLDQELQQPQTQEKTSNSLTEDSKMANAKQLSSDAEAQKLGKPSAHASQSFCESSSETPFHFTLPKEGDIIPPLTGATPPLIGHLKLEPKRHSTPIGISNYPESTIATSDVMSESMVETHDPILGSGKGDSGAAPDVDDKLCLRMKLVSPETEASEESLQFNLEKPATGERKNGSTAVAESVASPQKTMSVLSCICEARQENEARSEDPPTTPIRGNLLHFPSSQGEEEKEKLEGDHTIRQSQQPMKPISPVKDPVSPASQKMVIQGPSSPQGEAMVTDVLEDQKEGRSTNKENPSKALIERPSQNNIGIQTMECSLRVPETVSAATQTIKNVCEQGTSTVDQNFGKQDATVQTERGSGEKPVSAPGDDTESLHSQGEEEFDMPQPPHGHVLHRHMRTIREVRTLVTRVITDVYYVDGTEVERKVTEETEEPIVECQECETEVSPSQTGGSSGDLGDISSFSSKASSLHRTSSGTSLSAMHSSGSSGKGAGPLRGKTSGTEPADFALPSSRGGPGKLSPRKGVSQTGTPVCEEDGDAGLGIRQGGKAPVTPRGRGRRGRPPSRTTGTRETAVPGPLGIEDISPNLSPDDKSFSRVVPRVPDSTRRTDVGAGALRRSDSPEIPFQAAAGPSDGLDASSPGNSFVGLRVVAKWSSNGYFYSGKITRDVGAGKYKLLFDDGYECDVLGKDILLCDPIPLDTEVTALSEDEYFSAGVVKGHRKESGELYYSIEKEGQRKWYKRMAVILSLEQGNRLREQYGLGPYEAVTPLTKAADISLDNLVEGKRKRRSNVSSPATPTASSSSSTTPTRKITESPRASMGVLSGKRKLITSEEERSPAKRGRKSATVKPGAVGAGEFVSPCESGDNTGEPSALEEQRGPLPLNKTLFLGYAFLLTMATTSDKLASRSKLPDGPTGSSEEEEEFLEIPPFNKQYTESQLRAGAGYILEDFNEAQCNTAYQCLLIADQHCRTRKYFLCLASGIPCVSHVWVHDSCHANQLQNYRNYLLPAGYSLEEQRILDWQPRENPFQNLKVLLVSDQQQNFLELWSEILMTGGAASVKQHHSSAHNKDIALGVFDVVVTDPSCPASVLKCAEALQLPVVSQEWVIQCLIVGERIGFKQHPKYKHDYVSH
Method: FIG. 3. The i53 protein inhibits 53BP1. FIG. 3A-B, U2OS cells were transfected with vectors expressing i53, its 53BP1-binding deficient mutant (DM) or an empty vector (EV) control. Cells were then X-irradiated with a 10 Gy dose and processed for immunofluorescence with the indicated antibodies 1 h post-irradiation (IR). DAPI staining (not shown) was used to delineate the outline (dashed lines) of the cell nuclei. The region in the magnified inset is indicated with a square. Quantitation of the experiment is shown in panel (a) and data is indicated as the mean±s.e.m (N=3), whereas in (b) representative micrographs are shown. Arrowheads indicate Flag-positive cells. FIG. 3C, Parental or 53BP1ΔU2OS cells transfected with vectors expressing i53, the DM mutant or an empty vector (EV) control were irradiated (10 Gy) 1 h before being processed for immunofluorescence. Cell cycle stage was assessed by Cyclin A staining. The data is presented as the mean±s.e.m.; N=3. FIG. 3D, Immunoprecipitation (IP) of Flag-tagged proteins from extracts prepared from 293T cells transfected with vectors expressing Flag-i53 or the i53-DM mutant. Proteins were separated by SDS-PAGE and immunoblotted (IB) for Flag and 53BP1.
293T cells were transfected with 10 μg of pcDNA3-Flag-i53-derived plasmids using polyethylenimine (PEI). […]

Substance | Total peptides, FMR1 (FMR1) | Total peptides, RPS29 (RPS29) | Total peptides, MYCBP (MYCBP) | Retrieval of 53BP1 in co-immunoprecipitation (53BP1)
i53-DM: 53BP1-binding deficient mutant of i53 (P69L, L70V) | 6 | 3 | 7 and 5 | –
i53: UbvG08 with C-terminal di-glycine removed and I44A mutation; genetically encoded inhibitor of 53BP1 | – | – | – | efficiently retrieved 53BP1
